Where “and” joins values, the source holds several entries; their conditions need not be identical. Equal entries are not always repeated. Where two headings read alike, the source gives them in different places.
Experiments:
Assay in all cases: AUC; sedimentation velocity, 40,000 rpm, 25°C, 2 mg/ml, 10 mM Tris, ~pH 7.0; c(s) model (SEDFIT)
[1] = molecular target: Amel-C (amelogenin C-terminal fragment, AA 86-180) (mouse)
[2] = molecular target: full-length recombinant mouse amelogenin (M180) (mouse)
[3] = molecular target: full-length recombinant mouse amelogenin (M180) (mouse); remark: listed apart in the source

percent as larger aggregations [1] [%] | percent as tetramers [1] [%] | stoichiometry N [1] | stoichiometry N [2] | stoichiometry N [3] | Substance
2 | 7.5 | 4 and 6 | – | – | Amel-C (amelogenin C-terminal fragment, AA 86-180) (domain or fragment)
– | – | – | 50 | 40 | full-length recombinant mouse amelogenin (M180) (natural protein)

Source: paper PMC3184955
